Patent publication US8263350B2, “Molecular affinity clamp technology and uses thereof” (The University of Chicago, priority 2009, dated 2012)
One block for each molecule: values may come before it. Ends that are not written are not given here.

Assays:
[1] = test system: ePDZ-b2; experiment: SPR binding of the new tag peptide to ePDZ-b2; details: FIG. 9, SPR, ePDZ-b2 immobilized
Protocol: The affinity clamps were immobilized and the target peptides in the form of yeast SUMO fusion protein were used as the analytes. (a) Sensorgrams for the interaction of the wild-type ARVCF peptide and ePDZ-b2. Data with 0, 10, 20, 40, 80 and 160 nM peptide are shown in black, and calculated curves from the global fittings of the 1:1 Langmuir binding model are in orange. The estimated dissociation constant is indicated. The peptide sequence is also shown. (b) Sensorgrams for the interaction of the new tag peptide to ePDZ-b2. Data with 0, 10, 20, 40 and 80 nM target are shown.
(§1) Affinity Measurements. SPR measurements were performed in 20 mM HEPES/NaOH buffer (pH 7.4), 150 mM NaCl, and 0.005% Tween 20 at 25° C. on a BIAcore 2000 instrument. The affinity clamp or the linker mutant was immobilized on a Ni-NTA chip to the level of approximate 300 RU, and different concentrations of SUMO-peptide fusion protein were injected. The kinetic data were analyzed using the one-to-one binding model in BIAEvaluation (BIAcore). For weak interactions (Kd>5 μM), Kd values were determined from the saturation curve of the maximum RU values.

[2] = biological target: T1, δ-catenin peptide (Homo sapiens, UniProt Q9UQB3); experiment: SPR affinity measurement of affinity clamps with the δ-catenin peptide; format: binding
T1 construct: His tag (N, cleaved yes); made in house; host or cells: E. coli BL21(DE3)
Protocol: (§2) Protein Expression and Purification. All proteins used in this study were expressed using derivatives of the pHFT2 expression vector in E. coli BL21(DE3) cells. Protein expression was induced with 500 μM IPTG for three to five hours at 25° C. Proteins were purified with Ni affinity chromatography following standard protocols. When necessary, a second step of purification with Sephacryl S-100 column in PBS (50 mM sodium phosphate containing 150 mM NaCl, pH 7.4) was performed to ensure that proteins were monomeric. For protein crystallization and SPR experiments, the N-terminal His tag was cleaved with TEV protease and the cleaved protein was purified using Ni affinity chromatography.
as §1

[3] = test system: ARVCF peptide (alanine substituted); experiment: Ala-scanning of the ARVCF peptide with SPR affinity measurements; format: binding; details: substitution at each of the four positions −7 to −4 of the ARVCF peptide
From the text: Alanine-scanning mutagenesis analysis. Although the phage-display library approach is powerful in determining general trends in sequence specificity, large-scale sequencing is necessary for quantitatively characterizing protein-interaction energetics (Skelton et al., 2003; Sidhu and Koide, 2007). This requirement is acute particularly when there is a strong amino acid preference and thus recovered clones are dominated by a particular pattern, as in our case above. Accordingly, to complement the library sorting experiments described above, the inventors performed Ala-scanning experiments of the ARVCF peptide coupled with affinity measurements using SPR. Because the goal was to understand the differences in target recognition of the affinity clamps, and because the sequence specificity of the C-terminal four residues is predominantly defined by the specificity of the parent PDZ domain, the inventors analyzed only those positions that differed between the ARVCF and δ-catenin peptides.
(§3) Site-directed mutagenesis. Mutant forms of the SUMO-ARVCF peptide fusion protein and linker mutants of affinity clamps were constructed using Kunkel mutagenesis.
Affinity Measurements. […] The kinetic data were analyzed using the one-to-one binding model in BIAEvaluation (BIAcore). […]

[4] = biological target: T2, ARVCF peptide (Homo sapiens, UniProt O00192); experiment: SPR affinity measurement of affinity clamps with the ARVCF peptide; format: binding; details: 25° C.
T2 construct: His tag (N, cleaved yes); made in house; host or cells: E. coli BL21(DE3)
Protocol: as §2, §3, §1

affinity compared with the original (ARVCF) peptide [1]: higher affinity
dissociation rate compared with the original (ARVCF) peptide [1]: much slower
Molecule: RGSIDTWV-COOH (RGSIDTWV-OH) [used in SPR as yeast SUMO fusion]

discrimination between ARVCF peptide and δ-catenin peptide [2]: almost equally
Kd ([2]; SPR, 25° C.): 6.3 µM
Specificity Index ([2]; ratio of the Kd for δ-catenin to the Kd for ARVCF): 3
decrease in binding (ΔΔG) on alanine substitution [3]: only small effects
Kd [4]: 2200 nM
B1: Erbin PDZ: wild-type Erbin PDZ domain, the parent capture domain of the affinity clamps (protein)
chain: EIRVRVEKDPELGFSISGGVGGRGNPFRPDDDGIFVTRVQPEGPASKLLQPGDKIIQANGYSFINIEHGQAVSLLKTFQNTVELIIVREV
